Patent US20250243243A1, “DISRUPTION OF SONIC HEDGEHOG-SURF4 INTERACTION FOR CANCER TREATMENT” (The Hong Kong University of Science and Technology, priority 2022, published 2025)

Key:
[1] = molecular target: ShhN^1-198-HA (mouse) (UniProt Q62226); test: anti-HA immunoprecipitation from HEK293T lysate, label-free quantitative mass spectrometry; ratio of the ShhN-HA group to the IGF2-HA group
[2] = molecular target: IGF2-HA (human) (UniProt P01344); test: anti-HA immunoprecipitation from HEK293T lysate, label-free quantitative mass spectrometry; 2 unique peptides; untransfected Control Group printed 247624.8556
[3] = molecular target: ShhN^1-198-HA (mouse) (UniProt Q62226); test: as above

Chain of ShhN^1-198-HA (mouse) (Q62226 25-198): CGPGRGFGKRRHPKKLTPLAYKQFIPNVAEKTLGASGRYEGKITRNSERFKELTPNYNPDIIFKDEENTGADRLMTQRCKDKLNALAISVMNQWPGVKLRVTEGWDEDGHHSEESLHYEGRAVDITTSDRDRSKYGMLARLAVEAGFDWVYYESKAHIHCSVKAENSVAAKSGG

- Abundance Ratio ShhN:IGF2 [1]: 3.5
- abundance in The IGF2 Group [2]: 78500
- abundance in The ShhN Group [3]: 275000
B1: CLINT1 (protein, human (HEK293T cells), UniProt Q14677 1-625, looked up)
single chain: MLNMWKVRELVDKATNVVMNYSEIESKVREATNDDPWGPSGQLMGEIAKATFMYEQFPELMNMLWSRMLKDNKKNWRRVYKSLLLLAYLIRNGSERVVTSAREHIYDLRSLENYHFVDEHGKDQGINIRQKVKELVEFAQDDDRLREERKKAKKNKDKYVGVSSDSVGGFRYSERYDPEPKSKWDEEWDKNKSAFPFSDKLGELSDKIGSTIDDTISKFRRKDREDSPERCSDSDEEKKARRGRSPKGEFKDEEETVTTKHIHITQATETTTTRHKRTANPSKTIDLGAAAHYTGDKASPDQNASTHTPQSSVKTSVPSSKSSGDLVDLFDGTSQSTGGSADLFGGFADFGSAAASGSFPSQVTATSGNGDFGDWSAFNQAPSGPVASSGEFFGSASQPAVELVSGSQSALGPPPAASNSSDLFDLMGSSQATMTSSQSMNFSMMSTNTVGLGLPMSRSQNTDMVQKSVSKTLPSTWSDPSVNISLDNLLPGMQPSKPQQPSLNTMIQQQNMQQPMNVMTQSFGAVNLSSPSNMLPVRPQTNALIGGPMPMSMPNVMTGTMGMAPLGNTPMMNQSMMGMNMNIGMSAAGMGLTGTMGMGMPNIAMTSGTVQPKQDAFANFANFSK
